Reference: US20140289906A1, “Compositions Having Dicamba Decarboxylase Activity and Methods of Use” (priority 2013, published 2014)

B1: 28 (protein, listed as Sphingomonas paucimobilis)
chain: MARLIATEEAVTFQPVVDALRAHSRTDDASLDMILVRDVYGDEPARPAMIGRLSDVTGERLAEMDSNGVDMHLLSLTAPGVQMFDAETGTRLARIANDLMAQTVAANPTRFAGLGTFAPQDPASAAREIERVATQLRLNGLVINSHTNDLYYDDPFFHPVFEAIEASGLALYIHPRAPSKQIDRAFRDYGMNSAIWGYGIETSTNAVRMILSGLFDRFPRLKIVLGHMGEAIPFWLWRLDYMHGNATTFGGAPKLKLKPSEYFRRNFAITTSGVESHAALRYSIEVLGPENVMWAIDYPYQPMAPAVQFIRTAPIPEDVKAMVAGGNAARIFRIT
B2: 30 (protein)
chain: MARGKIALEEHVSTPENNRLWDSTGEANRNGSEYMQDVERRLLDRSIQLEEMAQRNIDHVILSLTSPGAQSILDKAKAVSFARDTNDFIVDNYVKPNPDKFSAFATLALQNPEAAAEELERAVKKLGMKGALINGYTNVKDSEHGLYLDDESMLVFWDKVNELNVPVYLHPREPLEGPARGIYTGYESLIGSAWGFAQETAVHAIRLMMSGLFDRYPNLNLVLGHLGEGLVHMLPRTQHRLYRQRFGCGLGKAEKPLMHYLQNNFIVTTSGHFNTHSLNNAIEVMGADRVMFSVDYPYEDIHQACDWFDPLEMDEGLKEKIAWGNASRVFNIK
modifications: Enterobacter aerogenes
B3: 31 (protein, listed as Agrobacterium sp.)
chain: MAQGKVALEEHFAIPETLQDSAGFVPGDYWKELQHRLLDIQDTRLKLMDAHGIETMILSLNAPAVQAIPDKTKAIEIARRANDVLAEECAKRPDRFLAFAALPLQDPDAATEELQRCVNDLGFVGALVNGFSQEGDGQTPLYYDLPQYRPFWGEVEKLDVPFYLHPRNPLPQDSRIYDGHPWLLGPTWAFAQETAVHALRLMASGLFDEHPRLNIILGHMGEGLPYMMWRIDHRNAWVKLPPRYPAKRRFMDYFNENFHITTSGNFRTQTLIDAILEIGADRILFSTDWPFENIDHASDWFNATSIAEADRVKIGRTNARRLFKLDGA
B4: 33 (protein, listed as Rhizobium leguminosarum)
chain: MAQGKIALEEHFAIPETLQDSAGFVPGDYWKELSARLLDIQEKRLRLMDAHGIEKMILSLNAPAVQAIPDRAKALEISRRANDFLAEQCVKNPNRFLGFAALPLQDPDAATQELQRCVTTMGFVGALVNGFSQEGDGTTPLYYDLPQYRSFWAEVEKLNVPFYLHPRNPLPQDSRIYAGHSWLMGPTWAFAQETAVHALRLMGSGLFDEHPALRIIVGHMGEGLPYMMWRIDNRNAWVKVEKSYPAKRPIADYFNENFYITTSGNFRTQSLIDAMLEIGADRILFSADWPFENIDHAANWFDSATISEADRLKIGRTNAVSLFKLDR
B5: 34 (protein)
chain: MAQGKIGLEEHFAIPETLNDSAGFVPGDYWKELSRRLLDIQDDRLRQMDENGMEMMLLSLNAPAVQAVPDRKQACELAVRANDFLAEQVSRRPDRFQALAALPLQDPDFATVELTRCVNELGMRGALVNGFSQIDTPDNVVYYDAPQYASFWAAVEKLDVPFYLHPRNPIASWAQIYDGHPWLLGPTWAFGQETAVHALRLMASGLFDRHPALQIVLGHLGEGLPYSLWRIDNRNAWVKAPKTHPAKKTFRHYFQQNFHLTTSGNFHNQTLIDAILEIGADRILFSTDWPFENIDHAAKWFDSASISEADRTKIGRTNAMKLFKLVA
modifications: Cupriavidus necator
B6: 35 (protein)
chain: MAFKASRKIALEEHFAIDATVQDSAGFVPPSYWAELKRRLLDIHDRRIDEMDRNGVELMVLSLNAPTVQAVPNIKDAYDLSRRANDFLAEQIVKRPERFKGFAALPMQSPDLAARELERCVKELNFVGALVNGFSQVEESGTALYYDLPQYRQFWSVVQALDVPFYLHPRNPLPAHAPIYEGHPWLLGPTWAFGQETAVHALRLMGSGLFDEYPELKIILGHMGEGLPYSMWRIDNRNAWVETQPNYPAKKRIAEYFHKNFWLTTSGNFRTQTLIDAMLEIGSDRILFSTDWPFENVDHAAQWFDDAAISENDRIKIARTNAARLFKLEP
modifications: Burkholderia sp
B7: 36 (protein, listed as Agrobacterium sp.)
chain: MAQGKVALEEHFAIPETLQDSAGFVPGDYWTELQHRLLDIQDTRLKLMDAHGIETMILSLNAPAVQAIPDKTKAIEIARRANDALAEECAKRPNRFLAFAALPLQDPDAATQELQRCVNDLGFVGALVNGFSQEGDGQIPLYYDLPQYRPFWGEVEKLDVPFYLHPRNPLPQDSRIYDGHPWLLGPTWAFAQETAVHALRLMASGLFDEHPRLNIILGHMGEGLPYMMWRIDHRNAWVKLPPRYPAKRRFVDYFNENFHITTSGNFRTQTLIDAILEIGADRILFSTDWPFENIDHASDWFHATSIAEADRVKIGRTNARRLFKLDGR
B8: 43 (protein, listed as Rhizobium leguminosarum)
chain: MAQGKIALEEHFAIPETLQDSAGFVPGDYWTELSARLLDIQDKRLRLMDTHGIEKMILSLNAPAVQAIPDKAKAVEISRRANDFLAEQCVKNPNRFLGFAALPLQDPDAATQELQRCVTTMGFVGALVNGFSQEGDGTTPLYYDLPQYRPFWAEVEKLDVPFYLHPRNPLPQDSRIYAGHSWLMGPTWAFAQETAVHALRLMGSGLFDEHPALRIIVGHMGEGLPYMMWRIDNRNAWVKVEKSYPAKRPIADYFNENFYITTSGNFRTQSLIDAMLEIGADRILFSADWPFENVDHAANWFDSATISEADRLKIGRTNAVSLFKLDR
B9: 44 (protein, listed as Mycobacterium avium)
chain: MARIITVEEHFQHPEVSARVAELTGPAVEGLAEFGNAFSLDPDSTARLGGNRLAHMDQVGIDVQVVSHGNGSPGTLQHPEAVELCRRVNNDLAAQIAENPDRFRGFATLPLYDPAAAAEELRRCVGDLGFVGALIAGSYDGLFLDDERFDPILTAAEAVDFPIYVHPGLPEAPVSQRYYAGSWPASVHMMFSGPAFGWHAEAGIHIVRLILSGALDRHPTLKLLSGHWGELAAFYLERLDETLGLLPTGLERAPSDYYRQQVWITPSGMYNQNQLNFMTAELGAQRIIYSEDFPYVVRDNVSTFLEQAGLSEADTHAIAHTNAEALLRI

Test: 14C assay: 14CO2 capture from [14C]-carboxyl-labeled dicamba with IPTG-induced recombinant E. coli cells
Settings: for Dicamba Decarboxylase Activity: IPTG-induced recombinant E. coli cells, 14CO2 from [14C]-carboxyl-labeled dicamba; for decarboxylation activity of dicamba: among the 108 sequences tested, recombinant E. coli cell assay; for Enzymatic Detection level: dicamba decarboxylation activity

Row | Molecule | Dicamba Decarboxylase Activity | decarboxylation activity of dicamba | Enzymatic Detection level
1 | B1 | High | showed decarboxylation activity of dicamba | High
2 | B2 | High | showed decarboxylation activity of dicamba | High
3 | B3 | High | showed decarboxylation activity of dicamba | High
4 | B4 | High | showed decarboxylation activity of dicamba | High
5 | B5 | High | showed decarboxylation activity of dicamba | High
6 | B6 | High | showed decarboxylation activity of dicamba | High
7 | B7 | High | showed decarboxylation activity of dicamba | High
8 | B8 | High | showed decarboxylation activity of dicamba | High
9 | B9 | High | showed decarboxylation activity of dicamba | High
